Molecular target: Sulfolobus solfataricus heat shock 20.1 (Sulfolobus solfataricus P2)
Assay: SEC

Sulfolobus solfataricus heat shock 20.1 (natural protein)
stoichiometry N: 24 subunits
